Where a chain is given by its changes, count along the chain named. In names and notes the source's numbering stands. Values belong to the molecule of their own block, whether it stands above or below them.
Assays:
KLK5 = KLK5 (UniProt Q9Y337 67-293, limits assumed); assay: cell-based or functional assay
[1] = biological target: human FcRn (AcrobioSystems; Catalog No: FCM-H5286) (human) (UniProt P55899); assay: SPR Biacore 8K, antibody coupled to CM5 chip, human FcRn as analyte, pH 6.0, steady state affinity fit
[2] = biological target: T1, recombinant human KLK5 C-6His (Novoprotein, Catalog No. C415) (human, UniProt Q9Y337 23-293); assay: SPR Biacore T200, polypeptide captured by anti-human IgG Fc, KLK5 as analyte, pH 7.4, steady state affinity fit
T1 construct: Bought protein; also called KLK5 protein (Novoprotein); not shown: C-terminal 6xHis tag ('C-6His')

rhKLK7 = rhKLK7 (human, UniProt P49862 30-253); assay: cell-based or functional assay
rhKLK14 = biological target: T2, rhKLK14 (human, UniProt Q9P0G3 25-251); assay: cell-based or functional assay
T2 sequence (looked up): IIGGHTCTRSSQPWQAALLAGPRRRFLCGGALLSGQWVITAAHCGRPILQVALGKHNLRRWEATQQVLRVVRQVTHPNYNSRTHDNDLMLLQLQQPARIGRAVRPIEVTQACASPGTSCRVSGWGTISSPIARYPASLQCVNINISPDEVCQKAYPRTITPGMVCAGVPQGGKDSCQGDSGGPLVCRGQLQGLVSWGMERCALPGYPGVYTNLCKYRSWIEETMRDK

[3] = biological target: T1, recombinant human KLK5 C-6His …; assay: ELISA on captured KLK5 C-6His; binder incubated in human serum, day 0
[4] = biological target: T1, recombinant human KLK5 C-6His …; assay: ELISA on captured KLK5 C-6His; binder incubated in human serum, day 1
[5] = biological target: T1, recombinant human KLK5 C-6His …; assay: ELISA on captured KLK5 C-6His; binder incubated in human serum, day 4
[6] = biological target: T1, recombinant human KLK5 C-6His …; assay: ELISA on captured KLK5 C-6His; binder incubated in human serum, day 7
[7] = biological target: T1, recombinant human KLK5 C-6His …; assay: ELISA on captured KLK5 C-6His; binder incubated in human serum, day 14
[8] = biological target: T3, human FcRn (AcrobioSystems; Catalog No: FCM-H5286) (human, UniProt P55899 24-297; P61769 21-119); assay: SPR Biacore 8K, polypeptide coupled to CM5 chip, human FcRn as analyte, pH 6.0, steady state affinity fit
T3 construct: Bought protein

[9] = biological target: T1, recombinant human KLK5 C-6His …; assay: ELISA, KLK5 C-6His captured by anti-His mAb; binder incubated in human serum, day 0
[10] = biological target: T1, recombinant human KLK5 C-6His …; assay: ELISA, KLK5 C-6His captured by anti-His mAb; binder incubated in human serum, day 1
[11] = biological target: T1, recombinant human KLK5 C-6His …; assay: ELISA, KLK5 C-6His captured by anti-His mAb; binder incubated in human serum, day 4
[12] = biological target: T1, recombinant human KLK5 C-6His …; assay: ELISA, KLK5 C-6His captured by anti-His mAb; binder incubated in human serum, day 7
[13] = biological target: T1, recombinant human KLK5 C-6His …; assay: ELISA, KLK5 C-6His captured by anti-His mAb; binder incubated in human serum, day 14

rhKLK7, sequence (P49862 30-253): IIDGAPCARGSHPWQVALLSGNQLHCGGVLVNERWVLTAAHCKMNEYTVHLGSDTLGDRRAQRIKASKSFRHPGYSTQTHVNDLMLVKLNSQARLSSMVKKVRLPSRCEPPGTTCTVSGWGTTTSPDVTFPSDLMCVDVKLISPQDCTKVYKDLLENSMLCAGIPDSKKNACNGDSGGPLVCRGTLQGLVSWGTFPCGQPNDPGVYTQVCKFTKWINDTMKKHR

Molecule: Rituximab (Roche) (antibody)
Kd [1]: 3100 nM

B1: Spink9 WT (Fc fusion)
chain: IECAKQTKQMVDCSHYKKLPPGQQRFCHHMYDPICGSDGKTYKNDCFFCSKVKKTDGTLKFVHFGKC
notes: not shown: The C-terminal IgG Fc fragment of the wild-type fusion
Kd [2]: 99 nM

B2: Spink9-112.K62G.Fc (SEQ ID NO: 56) (Fc fusion)
chain: IECAKQTKQMVDCSHYKKLPPEQELYCTREYDPICGSDGKTYGNDCFFCSKVKKTDGTLKFVHFGKCEPKSCDKTHTCPPCPAPEAAGGPSVFLFPPKPKDTLMISRTPEVTCVVVDVSHEDPEVKFNWYVDGVEVHNAKTKPREEQYNSTYRVVSVLTVLHQDWLNGKEYKCKVSNKALPAPIEKTISKAKGQPREPQVYTLPPSREEMTKNQVSLTCLVKGFYPSDIAVEWESNGQPENNYKTTPPVLDSDGSFFLYSKLTVDKSRWQQGNVFSCSVLHEALHSHYTQKSLSLSPGK
notes: Mutant SPINK9 domain fused directly to a C-terminal IgG Fc
KLK5 IC50 nM pH 5.5 (enzymatic activity) (KLK5): 0.9 nM | KLK5 IC50 nM pH 7.5 (enzymatic activity) (KLK5): 1.1 nM | KLK7 IC50 (nM) pH 7.5 (enzymatic activity) (rhKLK7): 2.4 nM | KLK14 IC50 (nM) pH 8.0 (enzymatic activity) (rhKLK14): 246 nM | EC50 [3]: 0.1 nM | EC50 [4]: 0.14 nM | EC50 [5]: 0.16 nM | EC50 [6]: 0.17 nM | EC50 [7]: 0.17 nM | Kd [8]: 233 nM

B7: SPINK9-112.2K62G.Fc (SEQ ID NO: 76) (Fc fusion)
chain: B2 chain with M104Y, S106T, T108E, L280M, S286N
notes: as for B2
EC50 [9]: 0.06 nM | EC50 [10]: 0.059 nM | EC50 [11]: 0.08 nM | EC50 [12]: 0.11 nM | EC50 [13]: 0.065 nM | Kd [8]: 189 nM

The remaining lines, values ahead:

IC50 of KLK5 enzymatic activity, pH 5.5 (KLK5): 685 nM | IC50 of KLK5 enzymatic activity, pH 7.5 (KLK5): 80 nM
Molecule: Wild Type Spink9 (SEQ ID NO: 2)

KLK5 IC50 nM pH 5.5 (enzymatic activity) (KLK5): 3.5 nM | KLK5 IC50 nM pH 7.5 (enzymatic activity) (KLK5): 1.5 nM | KLK7 IC50 (nM) pH 7.5 (enzymatic activity) (rhKLK7): 43.6 nM | KLK14, percent inhibition at 316 nM SPINK9 polypeptide, pH 8.0 (rhKLK14): 0% | EC50 [3]: 0.05 nM | EC50 [4]: 0.08 nM | EC50 [5]: 0.12 nM | EC50 [6]: 0.1 nM | EC50 [7]: 0.11 nM | Kd [8]: 231 nM | Kd [2]: 0.0291 nM
B3: Spink9-236.Fc (SEQ ID NO: 60) (Fc fusion)
chain: B2 chain with E24Q, Y26M, G43K
notes: as for B2

KLK5 IC50 nM pH 5.5 (enzymatic activity) (KLK5): 2.4 nM | KLK5 IC50 nM pH 7.5 (enzymatic activity) (KLK5): 2.2 nM | KLK7 IC50 (nM) pH 7.5 (enzymatic activity) (rhKLK7): 10.8 nM | KLK14, percent inhibition at 316 nM SPINK9 polypeptide, pH 8.0 (rhKLK14): 0% | EC50 [3]: 0.08 nM | EC50 [4]: 0.1 nM | EC50 [5]: 0.1 nM | EC50 [6]: 0.1 nM | EC50 [7]: 0.13 nM | Kd [8]: 229 nM | Kd [2]: 0.0909 nM
B4: Spink9-30.Fc (SEQ ID NO: 55) (Fc fusion)
chain: B2 chain with E24V, L25S, Y26W, G43K
notes: as for B2

KLK5 IC50 nM pH 5.5 (enzymatic activity) (KLK5): 8.3 nM | KLK5 IC50 nM pH 7.5 (enzymatic activity) (KLK5): 1.9 nM | KLK7 IC50 (nM) pH 7.5 (enzymatic activity) (rhKLK7): 8.3 nM | KLK14, percent inhibition at 316 nM SPINK9 polypeptide, pH 8.0 (rhKLK14): 0% | EC50 [3]: 0.09 nM | EC50 [4]: 0.16 nM | EC50 [5]: 0.21 nM | EC50 [6]: 0.12 nM | EC50 [7]: 0.29 nM | Kd [8]: 232 nM | Kd [2]: 0.0189 nM
B5: Spink9-186.Fc (SEQ ID NO: 58) (Fc fusion)
chain: B2 chain with E22A, E24L, L25I, R29K, G43K
notes: as for B2

KLK5 IC50 nM pH 5.5 (enzymatic activity) (KLK5): 3 nM | KLK5 IC50 nM pH 7.5 (enzymatic activity) (KLK5): 1.4 nM | KLK7 IC50 (nM) pH 7.5 (enzymatic activity) (rhKLK7): 5.4 nM | KLK14, percent inhibition at 316 nM SPINK9 polypeptide, pH 8.0 (rhKLK14): 0% | EC50 [3]: 0.07 nM | EC50 [4]: 0.09 nM | EC50 [5]: 0.12 nM | EC50 [6]: 0.11 nM | EC50 [7]: 0.1 nM | Kd [8]: 222 nM | Kd [2]: 0.0216 nM
B6: Spink9-183.Fc (SEQ ID NO: 57) (Fc fusion)
chain: B2 chain with E22Q, E24Q, L25A, E30D, G43K
notes: as for B2

Reference: US20260028389A1 (BIOCRYST PHARMACEUTICALS, published 2026)
